Test results taken from patent publication US20110105394A1 (Novo Nordisk, published 2011).
*1 amine or outer side, *2 acyl side, *3 side chain or, on linkers, in order; H or OH if unused. Bridges are numbered along the chain shown (N, C = ends). The star is where a group is joined. C20 diacid = O=C(O)CCCCCCCCCCCCCCCCCCC(=O)*; γGlu = O=C(O)[C@H](CCC(=O)[*:2])N[*:1]

T1: Amylin 3(a) receptor (human calcitonin receptor (CTa) with RAMP-3) (human) (UniProt P30988)
T1 sequence (looked up) 1: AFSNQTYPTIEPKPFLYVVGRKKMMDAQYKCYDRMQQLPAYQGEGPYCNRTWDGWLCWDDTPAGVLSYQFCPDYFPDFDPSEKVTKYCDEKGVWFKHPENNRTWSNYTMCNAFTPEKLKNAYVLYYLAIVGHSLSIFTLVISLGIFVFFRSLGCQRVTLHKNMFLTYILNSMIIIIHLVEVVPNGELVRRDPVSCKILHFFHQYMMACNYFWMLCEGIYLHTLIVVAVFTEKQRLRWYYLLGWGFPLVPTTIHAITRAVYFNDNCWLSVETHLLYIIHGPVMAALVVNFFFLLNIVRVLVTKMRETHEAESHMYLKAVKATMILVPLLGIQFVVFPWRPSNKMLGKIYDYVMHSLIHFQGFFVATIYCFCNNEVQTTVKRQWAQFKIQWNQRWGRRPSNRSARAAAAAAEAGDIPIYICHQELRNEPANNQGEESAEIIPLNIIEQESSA
T1 sequence (looked up) 2: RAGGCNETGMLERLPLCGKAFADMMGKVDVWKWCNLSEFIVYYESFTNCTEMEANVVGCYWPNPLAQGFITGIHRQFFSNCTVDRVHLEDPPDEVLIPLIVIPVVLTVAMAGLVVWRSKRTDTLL


Molecular target: T1, Amylin 3(a) receptor (human calcitonin receptor (CTa) with RAMP-3) (human)
Assay: cell-based or functional assay

Row | Potency Luciferase [nM] | Binder
1 | 0.1 | {C20 diacid-γGlu}-EHHHCNTATCATQRLANFLHHSSNNFGPILPPTNVGSNTY-NH2 (disulfide 5-10; SMILES CC[C@H](C)[C@H](NC(=O)[C@@H]1CCCN1C(=O)CNC(=O)[C@H](Cc1ccccc1)NC(=O)[C@H](CC(N)=O)NC(=O)[C@H](CC(N)=O)NC(=O)[C@H](CO)NC(=O)[C@H](CO)NC(=O)[C@H](Cc1c[nH]cn1)NC(=O)[C@H](Cc1c[nH]cn1)NC(=O)[C@H](CC(C)C)NC(=O)[C@H](Cc1ccccc1)NC(=O)[C@H](CC(N)=O)NC(=O)[C@H](C)NC(=O)[C@H](CC(C)C)NC(=O)[C@H](CCCNC(=N)N)NC(=O)[C@H](CCC(N)=O)NC(=O)[C@@H](NC(=O)[C@H](C)NC(=O)[C@@H]1CSSC[C@H](NC(=O)[C@H](Cc2c[nH]cn2)NC(=O)[C@H](Cc2c[nH]cn2)NC(=O)[C@H](Cc2c[nH]cn2)NC(=O)[C@H](CCC(=O)O)NC(=O)CC[C@H](NC(=O)CCCCCCCCCCCCCCCCCCC(=O)O)C(=O)O)C(=O)N[C@@H](CC(N)=O)C(=O)N[C@@H]([C@@H](C)O)C(=O)N[C@@H](C)C(=O)N[C@@H]([C@@H](C)O)C(=O)N1)[C@@H](C)O)C(=O)N[C@@H](CC(C)C)C(=O)N1CCC[C@H]1C(=O)N1CCC[C@H]1C(=O)N[C@H](C(=O)N[C@@H](CC(N)=O)C(=O)N[C@H](C(=O)NCC(=O)N[C@@H](CO)C(=O)N[C@@H](CC(N)=O)C(=O)N[C@H](C(=O)N[C@@H](Cc1ccc(O)cc1)C(N)=O)[C@@H](C)O)C(C)C)[C@@H](C)O) [N-alpha-[(S)-4-Carboxy-4-(19-carboxynonadecanoylamino)butyryl]-Glu-His-His-[His1,His17]-pramlintide]
2 | 0.9 | {C20 diacid}-EERECNTATCATQRLAEFLHHSSNNFGPILPPTEVGSNTY-NH2 (disulfide 5-10; SMILES CC[C@H](C)[C@H](NC(=O)[C@@H]1CCCN1C(=O)CNC(=O)[C@H](Cc1ccccc1)NC(=O)[C@H](CC(N)=O)NC(=O)[C@H](CC(N)=O)NC(=O)[C@H](CO)NC(=O)[C@H](CO)NC(=O)[C@H](Cc1c[nH]cn1)NC(=O)[C@H](Cc1c[nH]cn1)NC(=O)[C@H](CC(C)C)NC(=O)[C@H](Cc1ccccc1)NC(=O)[C@H](CCC(=O)O)NC(=O)[C@H](C)NC(=O)[C@H](CC(C)C)NC(=O)[C@H](CCCNC(=N)N)NC(=O)[C@H](CCC(N)=O)NC(=O)[C@@H](NC(=O)[C@H](C)NC(=O)[C@@H]1CSSC[C@H](NC(=O)[C@H](CCC(=O)O)NC(=O)[C@H](CCCNC(=N)N)NC(=O)[C@H](CCC(=O)O)NC(=O)[C@H](CCC(=O)O)NC(=O)CCCCCCCCCCCCCCCCCCC(=O)O)C(=O)N[C@@H](CC(N)=O)C(=O)N[C@@H]([C@@H](C)O)C(=O)N[C@@H](C)C(=O)N[C@@H]([C@@H](C)O)C(=O)N1)[C@@H](C)O)C(=O)N[C@@H](CC(C)C)C(=O)N1CCC[C@H]1C(=O)N1CCC[C@H]1C(=O)N[C@H](C(=O)N[C@@H](CCC(=O)O)C(=O)N[C@H](C(=O)NCC(=O)N[C@@H](CO)C(=O)N[C@@H](CC(N)=O)C(=O)N[C@H](C(=O)N[C@@H](Cc1ccc(O)cc1)C(N)=O)[C@@H](C)O)C(C)C)[C@@H](C)O) [N-alpha-(19-carboxynonadecanoyl)-Glu-Glu-Arg-[Glu1,Glu14,His17,Glu31]-pramlintide]
